PMC12331169, “Structural and functional studies of rabbit SAMD9 reveal a distinct tRNase module that underlies the antiviral activity”

Target: T1, rSAMD9 158-389 (tRNase domain) (Oryctolagus cuniculus (European rabbit; …, UniProt G1U2M9 158-389)
T1 sequence: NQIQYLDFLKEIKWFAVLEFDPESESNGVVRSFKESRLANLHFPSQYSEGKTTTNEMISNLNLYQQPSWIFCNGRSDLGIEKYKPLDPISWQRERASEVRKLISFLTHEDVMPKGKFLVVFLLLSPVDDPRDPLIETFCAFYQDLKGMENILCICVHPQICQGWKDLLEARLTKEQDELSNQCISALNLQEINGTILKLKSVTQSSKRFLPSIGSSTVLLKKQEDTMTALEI
Test: EMSA; stable complex predominant at 2:1 protein:dsDNA; no DNA density seen in the crystal; EMSA on 0.8% native agarose gel, EtBr then Coomassie stain; buffer, salt, pH and temperature not given (as in earlier paper)
Conditions: protein: recombinant; tags: 6xHis-SUMO removed by Ulp1; chain copies: 2; blunt

B1: 26-nt dsDNA (dsDNA)
DNA 1: TATTCAAATTAATGATTTATTCAATT
DNA 2: AATTGAATAAATCATTAATTTGAATA
binding result: binds
